In patent US20250361299A1 (ZHEJIANG SHIMAI PHARMACEUTICAL, published 2025):
Blank lines part the entries; values can stand above or below the binder they belong to.

Target: T1, Recombinant human EGFR (human, UniProt P00533 25-645)
T1 construct: Bought protein coated on ELISA plates (100 ng per well); also called human antigen EGFR
Test: ELISA on coated human EGFR, antibody not treated with uPA
Method: To determine the binding affinity of proBiTEs to CD3 and EGFR, ELISA was performed according to standard protocols. Briefly, human antigen CD3 and EGFR were coated on Corning EIA/RIA high-binding 96-well plates (Corning Inc.) at 100 ng per well overnight at 4° C. and blocked with 3% nonfat milk in PBS (pH7.4). For cleavage with urokinase (uPA), 30 μg antibodies were mixed with or without 0.3 μg recombinant human uPA (50 μg/mL) (Sino Biological) in PBS (pH7.4) and incubated at room temperature for 4 hour. Then the mixture with or without uPA was diluted in a fivefold gradient and incubated at room temperature for 2 h. The plates were washed with PBS containing 1% nonfat milk. Bound antibodies were detected by HRP-conjugated streptavidin (Sigma). The assay was developed at room temperature with TMB substrate (Solarbio) and monitored at 450 nm with a microplate reader. The half-maximal binding (EC₅₀) was calculated by fitting the data to the Langmuir adsorption isotherm.

- binding result: binds
B1: 1.6.1M-Pa proBiTE (bispecific antibody)
heavy: QDGNEEMGGGSQDGNEEMGGIGGGSGGGGSGLSGRSDNHGGGGSEVQLVESGGGLVQPGGSLRLSCAASGFTFNTYAMNWVRQAPGKGLEWVARIRSKYNNYATYYADSVKGRFTISRDDSKNTLYLQMNSLRAEDTAVYYCARHGNFGSSYVSYFAYWGQGTTVTVSSASTKGPSVFPLAPSSKSTSGGTAALGCLVKDYFPEPVTVSWNSGALTSGVHTFPAVLQSSGLYSLSSVVTVPSSSLGTQTYICNVNHKPSNTKVDKKVEPKSCPPCPAPEAAGAPSVFLFPPKPKDTLMISRTPEVTCVVVDVSHEDPEVKFNWYVDGVEVHNAKTKPREEQYNSTYRVVSVLTVLHQDWLNGKEYKCKVSNKALPAPIEKTISKAKGQPREPQVYTLPPSRDELTKNQVSLLCLVKGFYPSDIAVEWESNGQPENNYKTTPPVLDSDGSFFLHSKLTVDKSRWQQGNVFSCSVMHEALHNHYTQKSLSLSPGK
light: QVQLQESGPGLVKPSETLSLTCTVSGGSVSSGDYYWTWIRQSPGKGLEWIGHIYYSGNTNYNPSLKSRLTISIDTSKTQFSLKLSSVTAADTAIYYCVRDRVTGAFDIWGQGTMVTVSSGGGGSGGGGSGGGGSGGGGSDIQMTQSPSSLSASVGDRVTITCQASQDISNYLNWYQQKPGKAPKLLIYDASNLETGVPSRFSGSGSGTDFTFTISSLQPEDIATYFCQHFDHLPLAFGGGTKVEIKGGGGSGGGGSGGGGSGGGGSEIVVTQSPATLSVSPGERATLSCRSSTGAVTTSNYANWVQQKPGQAPRGLIGGANKRAPGVPARFSGSLSGDEATLTISSLQSEDFAVYYCALWYSNLWVFGQGTKLEIKRTVAAPSVFIFPPSDEQLKSGTASVVCLLNNFYPREAKVQWKVDNALQSGNSQESVTEQDSKDSTYSLSSTLTLSKADYEKHKVYACEVTHQGLSSPVTKSFNRGECPPCPAPEAAGAPSVFLFPPKPKDTLMISRTPEVTCVVVDVSHEDPEVKFNWYVDGVEVHNAKTKPREEQYNSTYRVVSVLTVLHQDWLNGKEYKCKVSNKALPAPIEKTISKAKGQPREPQVYTLPPSRDELTKNQVSLLCLVKGFYPSDIAVEWESNGQPENNYKTTPPVLDSDGSFFLHSKLTVDKSRWQQGNVFSCSVMHEALHNHYTQKSLSLSPGK
notes: Intact, not treated with uPA; As 1.6.1M proBiTE but with a panitumumab anti-EGFR scFv in the light chain

- binding result: binds
B2: 1.6.1M-2-1-Pa proBiTE (bispecific antibody)
heavy: QDGNEEMGGGSQDGNEEMGGIGGGSGGGGSGLSGRSDNHGGLSGRSDNHGGSEVQLVESGGGLVQPGGSLRLSCAASGFTFNTYAMNWVRQAPGKGLEWVARIRSKYNNYATYYADSVKGRFTISRDDSKNTLYLQMNSLRAEDTAVYYCARHGNFGSSYVSYFAYWGQGTTVTVSSASTKGPSVFPLAPSSKSTSGGTAALGCLVKDYFPEPVTVSWNSGALTSGVHTFPAVLQSSGLYSLSSVVTVPSSSLGTQTYICNVNHKPSNTKVDKKVEPKSCPPCPAPEAAGAPSVFLFPPKPKDTLMISRTPEVTCVVVDVSHEDPEVKFNWYVDGVEVHNAKTKPREEQYNSTYRVVSVLTVLHQDWLNGKEYKCKVSNKALPAPIEKTISKAKGQPREPQVYTLPPSRDELTKNQVSLLCLVKGFYPSDIAVEWESNGQPENNYKTTPPVLDSDGSFFLHSKLTVDKSRWQQGNVFSCSVMHEALHNHYTQKSLSLSPGK
light: B1 light
notes: Intact, not treated with uPA
